Data on six molecules can be found in US20250101133A1 (CENTRE NATIONAL DE LA RECHERCHE SCIENTIFIQUE, published 2025).

Test [1] deals with T1, recombinant human NEDP1 protein (human, UniProt Q96LD8 1-212).
T1 construct: also called deNEDDylating enzyme NEDP1; NEDP1 enzyme
T1 sequence (looked up): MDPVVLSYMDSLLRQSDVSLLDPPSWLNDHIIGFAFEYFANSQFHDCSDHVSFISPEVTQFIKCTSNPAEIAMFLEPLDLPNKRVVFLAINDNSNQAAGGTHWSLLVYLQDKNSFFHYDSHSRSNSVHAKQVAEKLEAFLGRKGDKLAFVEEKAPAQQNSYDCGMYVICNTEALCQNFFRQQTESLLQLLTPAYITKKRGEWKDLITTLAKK
The experiment in a line: SPR and ELISA. The method, then:
(§1) FIGS. 1A-1C: FIG. 1A Table showing the different Nanobodies isolated and their binding specificity towards the immunogen human NEDP1 and ULP-3, the C. elegans homologue of NEDP1 (−poor/no binding, + indicates binding affinity/specificity). FIG. 1B ELISA test, showing the binding of indicated Nanobodies (300 ng) against increasing amounts of coated recombinant human NEDP1. FIG. 1C Table showing the SPR (Surface Plasmon Resonance) analysis and binding affinities for indicated Nanobodies against human NEDP1.
(§2) Nbs affinities for NEDP1 were determined on a Biacore 2000 apparatus (Biacore AB, Uppsala, Sweden). Nanobodies (355 nM) were immobilized on anti-His6 antibody covalently immobilized on a carboxymethyl dextran sensorchip (CM5 Biacore AB) using the amine coupling method according to the manufacturer's instructions. The immobilization level was 500 resonance units (RU). Different concentrations of NEDP1 ranging from 0.75 to 200 nM in HEPES-buffered saline (0.01 M HEPES, pH 7.4, 0.15 M NaCl, 3 mM EDTA, 0.005% surfactant P20) were injected and exposed to the Nb. All sensorgrams were fitted by subtracting the signal from the reference flow cell and were treated using BIA evaluation version 3.2 software (Biacore AB).

For test [2], the target named is T2, endogenous NEDP1 in U2OS cell extracts (human, UniProt Q96LD8 1-212).
T2 construct: Untagged native protein, co-immunoprecipitated from cell lysate
T2 sequence (looked up): T1 sequence (looked up)
As to the kind of experiment: anti-Flag immunoprecipitation from U2OS cell extracts, western blot with anti-NEDP1. The method, then:
FIGS. 4A-4B: FIG. 4A Extracts from empty pcDNA3 vector (vect.) or stably expressing Nanobody 2/Nanobody 9-Flag (AbR2DP12/AbR2DP46) U2OS cells were used for anti-Flag immunoprecipitations. Total cell extracts (input) and eluates were used for western blot analysis with the indicated antibodies. FIG. 4B U2OS cells described above were lysed in 2×SDS buffer and extracts were analysed by western blotting with the indicated antibodies.
U2OS cells either with empty pcDNA3 vector or stably expressing Nb2/Nb9-Flag constructs were lysed in 50 mM Tris-HCl, pH 7.4, 100 mM KCl, 1% NP-40, 2 mM EDTA, protease inhibitors (complete EDTA-free, Roche) for 15 min on ice. After centrifugation at 13000 rpm for 15 min at 4° C. extracts were used for immunoprecipitations overnight at 4° C. with 20 μl of pre-washed Flag beads. Next day beads were washed 3× with 500 μl of lysis buffer, resuspended in 50 μl of 2×SDS Laemmli buffer and boiled for 5 min. Eluates were analysed by western blotting.
(In general: In western blotting, separated proteins are transferred to a membrane and probed.)

Test [3] concerns the target T1, recombinant human NEDP1 protein. The experiment in a line: SPR. The method, then: as §1, §2

B1: AbR2DP12, purified His6-tagged nanobody (VHH)
VHH: QVQLQESGGGLVQAGGSLRLSCAASGSTSSFNVMAWYHQAPGKQRESVASITSGGITVYRDSVKGRFAISSDNAKNTVFLQMNSLKPEDTGVYYCGGVVDGRVYRGQGTQVTVSS
notes: Llama VHH, recloned into pHEN6 and purified from E. coli periplasm as a His6-tagged protein; also called Nb2; Nanobody 2; not shown: His6 tag from vector pHEN6
Turning to B1, the binding result in test [1] is on record as “binds”.

B2: Nb2-Flag (AbR2DP12 with Flag tag, stably expressed in U2OS cells) (VHH)
VHH: B1 VHH
notes: Expressed inside U2OS cells from a pcDNA3 construct; also called Nanobody 2-Flag; AbR2DP12-Flag; not shown: Flag tag
For B2, the binding result in test [2] is “binds”.

B3: AbR2DP47, purified His6-tagged nanobody (VHH)
VHH: QVQLQESGGGLVEPGGSLRLSCAASGSISSINVMAWYRQAPGKQRESVAAISSFGITTYSETVKGRFTASRDNAKNTMYLQMNNLKPEDTAVYYCKGPNTDWGQGTQVTVSS
notes: Llama VHH, recloned into pHEN6 and purified from E. coli periplasm as a His6-tagged protein; also called Nb10; Nanobody 10; not shown: His6 tag from vector pHEN6
Consider B3, for which the binding result in test [1] is “binds”.

B4: AbR2DP46, purified His6-tagged nanobody (VHH)
VHH: QVQLQESGGGLVQAGGSLRLSCAASGSPFSIGTMAWYRQAPGNQRASVAAITRGGATTYANSVKGRFTVSRDNAKNTVYLQMNSLKPEDTAAYYCSVWAGDRAYWGQGTQVTVSS
notes: Llama VHH, recloned into pHEN6 and purified from E. coli periplasm as a His6-tagged protein; also called Nb9; Nanobody 9; not shown: His6 tag from vector pHEN6
For B4, the binding result in test [1] is given as “binds”.

B5: Nb9-Flag (AbR2DP46 with Flag tag, stably expressed in U2OS cells) (VHH)
VHH: B4 VHH
notes: Expressed inside U2OS cells from a pcDNA3 construct; also called Nanobody 9-Flag; AbR2DP46-Flag; not shown: Flag tag
Consider B5, for which the binding result in test [2] is recorded as “binds”.

B6: AbR2DP35, purified His6-tagged nanobody (VHH)
VHH: QVQLQESGGGLVQPGGSLTLSCAASGVMFSTGVMGWYRQAPGKQREAVAAITSGGLTTYKDSVKGRFAISRDNTKSTGYLQMNRLRPEDTAVYYCNVRGYWGQGTQVTVSS
notes: Llama VHH, purified as a His6-tagged protein; also called Nb7; Nanobody 7; not shown: His6 tag from vector pHEN6
Regarding B6, the binding result in test [3] is reported as “binds”.
